Test results: patent US20240117038A1 (Ablynx, published 2024)

How the values were obtained:
Assay in all cases: membrane protein array validation: flow cytometry on unfixed cells expressing the protein, serial dilutions in buffer with 10% human serum albumin, fluorescently labeled secondary antibody that binds ISVDs
FCGR2B = target: T1, FCGR2B (human, UniProt P31994)
T1 construct: overexpressed on live cells from an expression plasmid; Tested in the validation titration of the membrane protein array
T1 sequence (membrane protein, looked up): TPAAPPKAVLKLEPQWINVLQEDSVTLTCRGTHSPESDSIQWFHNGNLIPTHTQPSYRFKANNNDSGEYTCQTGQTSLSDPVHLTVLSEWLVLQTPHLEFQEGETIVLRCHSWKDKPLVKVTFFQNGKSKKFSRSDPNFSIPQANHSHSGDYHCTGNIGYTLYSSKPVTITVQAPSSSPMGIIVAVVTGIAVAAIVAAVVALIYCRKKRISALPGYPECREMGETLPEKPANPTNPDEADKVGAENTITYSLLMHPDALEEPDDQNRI

MCAM = target: T2, MCAM (human, UniProt P43121 24-646)
T2 construct: whole, on cells; also called MUC18; cell surface glycoprotein MUC18

DCC = target: T3, DCC (human, UniProt P43146)
T3 construct: overexpressed on live cells from an expression plasmid; Tested in the validation titration of the membrane protein array
T3 sequence (P43146 26-1447 limits assumed): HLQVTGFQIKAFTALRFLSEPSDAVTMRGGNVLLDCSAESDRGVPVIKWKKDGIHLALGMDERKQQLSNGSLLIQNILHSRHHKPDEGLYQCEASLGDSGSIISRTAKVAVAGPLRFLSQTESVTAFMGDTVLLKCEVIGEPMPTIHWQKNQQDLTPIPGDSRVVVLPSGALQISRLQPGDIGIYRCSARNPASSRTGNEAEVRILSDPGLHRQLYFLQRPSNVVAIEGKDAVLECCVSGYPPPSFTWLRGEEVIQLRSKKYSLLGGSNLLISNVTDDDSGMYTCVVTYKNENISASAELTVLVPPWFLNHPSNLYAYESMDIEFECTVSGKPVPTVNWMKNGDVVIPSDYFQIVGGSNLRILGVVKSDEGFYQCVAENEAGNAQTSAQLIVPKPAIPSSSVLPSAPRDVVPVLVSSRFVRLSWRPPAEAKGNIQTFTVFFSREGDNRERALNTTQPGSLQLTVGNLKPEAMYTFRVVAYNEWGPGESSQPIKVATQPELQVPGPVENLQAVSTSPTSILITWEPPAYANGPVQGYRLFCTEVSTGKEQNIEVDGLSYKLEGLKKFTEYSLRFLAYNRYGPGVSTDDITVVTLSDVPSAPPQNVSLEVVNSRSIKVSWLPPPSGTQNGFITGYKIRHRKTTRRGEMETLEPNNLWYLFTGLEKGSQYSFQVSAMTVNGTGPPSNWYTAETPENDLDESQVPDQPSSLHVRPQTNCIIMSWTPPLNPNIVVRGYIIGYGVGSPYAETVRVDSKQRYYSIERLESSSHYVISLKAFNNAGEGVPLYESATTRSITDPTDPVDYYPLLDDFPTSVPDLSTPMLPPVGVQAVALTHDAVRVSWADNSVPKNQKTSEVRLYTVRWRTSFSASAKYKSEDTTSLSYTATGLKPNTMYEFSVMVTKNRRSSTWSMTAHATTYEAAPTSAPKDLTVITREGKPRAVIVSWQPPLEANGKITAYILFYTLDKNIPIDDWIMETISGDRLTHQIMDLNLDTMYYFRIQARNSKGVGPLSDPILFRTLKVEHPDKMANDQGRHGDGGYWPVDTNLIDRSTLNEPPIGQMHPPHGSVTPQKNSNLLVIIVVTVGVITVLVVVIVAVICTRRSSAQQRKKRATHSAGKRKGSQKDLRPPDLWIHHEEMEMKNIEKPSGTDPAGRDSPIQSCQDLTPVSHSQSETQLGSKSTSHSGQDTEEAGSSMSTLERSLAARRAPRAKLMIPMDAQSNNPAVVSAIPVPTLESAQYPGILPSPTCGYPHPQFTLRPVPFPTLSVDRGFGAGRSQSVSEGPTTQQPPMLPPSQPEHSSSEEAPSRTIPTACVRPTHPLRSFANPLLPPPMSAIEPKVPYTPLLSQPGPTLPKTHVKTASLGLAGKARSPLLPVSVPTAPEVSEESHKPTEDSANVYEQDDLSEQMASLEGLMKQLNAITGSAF

Measured: binding result

B1: A041600035 (VHH)
chain: DVQLVESGGGSVQPGGSLRLSCAASGSIFSSTAMAWYRQAPGKQRDLVAVISTVGITKYADSVKGRFTISRDNAKNTVYLQMNSLRPEDTALYYCTSDARRGWDTRYWGQGTLVTVSSGGGGSGGGSEVQLVESGGGSVQPGGSLRLSCAASGSIFSSTAMAWYRQAPGKQRDLVAVISTVGITKYADSVKGRFTISRDNAKNTVYLQMNSLRPEDTALYYCTSDARRGWDTRYWGQGTLVTVSSGGGGSGGGSEVQLVESGGGVVQPGGSLRLSCAASGFTFRSFGMSWVRQAPGKGPEWVSSISGSGSDTLYADSVKGRFTISRDNSKNTLYLQMNSLRPEDTALYYCTIGGSLSRSSQGTLVTVSSA
notes: Trivalent ISVD construct (two anti-CX3CR1 ISVDs, one anti-albumin ISVD), C-terminal alanine included in the entry; also called 54A12_SO (E1D)-9GS-54A12_SO-9GS-ALB23002-A
no binding (tested: 20 ug/ml): all assays above
